# Results taken from patent publication US10883090B2, “P-coumaroyl-CoA:monolignol transferases” (WISCONSIN ALUMNI RESEARCH FOUNDATION, priority 2017, dated 2021).
# Entries after “also recorded” stand apart in the source; their conditions may differ.
# B1: PvPMT: Panicum virgatum (switchgrass) p-coumaroyl-CoA:monolignol transferase, amino acid sequence SEQ ID NO:2, Pavir.J00672.1 (protein, listed as Panicum virgatum)
# chain: MGTIGFPVTRTSRSLVAPSSATPQETLHLSVIDRVAGLRHLVRSLHVFDGRRGEAAVRTPAETLRAALGKALVDYYPLAGRFVEEDGEVRVACTAGGAWFVEAAAACTLEEVKHLDHPMVIPKEDLLPEPAPDVNPLDMPLMMQVTEFACGGFVVGLISVHTIADGLGAGQFINAVADYARGLPRPRVLPVWARDVIPAPSRIVSPPPRFDLLDLRYFTVDLSPEHIAKVKSSFFEATGQRCSAFDVCVAKTWQSRVRALRLDGDDPARPIHVCFFANTRHLLPQLAPGFYGNCFYTVRATRPCGEVAAAGVVEVVRAIRDAKARLGADFARWAAGGFERDPYELTFSYDSLFVSDWTRLGFLEADYGWGAPAHVVPFSYHPFMAVAVIGAPPAPKPGARVMTMCVTEKHLPEFQEQMNAFAAGNHQ
# B2: SbPMT: Sorghum bicolor (sorghum) p-coumaroyl-CoA:monolignol transferase, amino acid sequence SEQ ID NO:4, Sb09g002910.1 (protein)
# chain: MGTIDDTAGLFPVTRTNRSLVPPSSATPQETLRLSVIDRVAGLRHLVRSLHVFAGGENKKQAAPPAKSLREALGKALVDYYPFAGRFVEEDGEVRVACTGEGAWFVEAAAACSLEEVRHLDHPMLIPKEELLPEPAPGVNPLDMPLMMQVTEFTCGGFVVGLISVHTIADGLGAGQFINAVADYARGGATAGAVTRPRITPIWARDVIPDPPKMPAPPPRLDLLDLVYFTTDLSPDHIAKVKSSYLESTGQRCSAFDVCVARTWQARVRALRLPDAAAPVHVCFFANTRHLLPATAAAPASGFYGNCFYTVKATRPSGEVAAADIVDVVRAIRDAKARLAADFARWAAGGFDRDPYELTFTYDSLFVSDWTRLGFLEADYGWGTPTHVVPFSYHPFMAVAVIGAPPAPKPGARIMTMCVQEQHLPEFQEQMNQPCS
# modifications: Sorghum bicolor
# Legend:
# [1] = Activity screening of cell-free translated PMT enzymes with p-coumaroyl-CoA and monolignol mixture (LC-MS); format: biochemical; conditions: fed monolignols (H, G, S) and p-coumaroyl-CoA; FIGS. 3A, 4A, 9
# Description: The active enzymes were produced using a wheat germ cell-free translation bilayer method previously reported (Makino, S., Beebe, E. T., Markley, J. L. and Fox, B. G. (2014) Cell-free protein synthesis for functional and structural studies. Methods in Molecular Biology, 1091, 161-178). Briefly, a translation reaction mixture consisting of 60 OD wheat germ extract (CellFree Sciences, Matsuyama, Japan), 0.04 mg/mL creatine kinase, 0.3 mM each amino acid, 12.6 mM HEPES-KOH, pH 7.8, 52.6 mM potassium acetate, 1.3 mM magnesium acetate, 0.2 mM spermidine HCl, 2.1 mM DTT, 0.6 mM ATP, 0.13 mM GTP, 8.4 mM creatine phosphate, and 0.003% sodium azide was prepared and combined with non-purified, fresh transcription at a ratio of 4 parts reaction mix to 1 part transcription. A feeding layer was prepared consisting of 0.3 mM each amino acid, 24 mM HEPES-KOH, pH 7.8, 100 mM potassium acetate, 2.5 mM magnesium acetate, 0.4 mM spermidine HCl, 4 mM DTT, 1.2 mM ATP, 0.25 mM GTP, 16 mM creatine phosphate, and 0.005% sodium azide, of which […] was added to wells of a U-bottom 96-well plate. 25 μL of the denser translation reaction mixture was carefully underlayed below the feeding layer, forming a bilayer. The plate was sealed and incubated at 22° C. for 18 h. The fully-diffused 150-μL bilayer reaction was then harvested and used for expression analysis by SDS-PAGE, and activity screening. […]
# [2] = Activity screening of cell-free translated PMT enzymes with feruloyl-CoA and monolignol mixture (LC-MS); format: biochemical; conditions: fed monolignols (H, G, S) and feruloyl-CoA, FIGS. 3B, 4B, 10
# Description: The active enzymes were produced using a wheat germ cell-free translation bilayer method previously reported (Makino, S., Beebe, E. T., Markley, J. L. and Fox, B. G. (2014) Cell-free protein synthesis for functional and structural studies. Methods in Molecular Biology, 1091, 161-178). Briefly, a translation reaction mixture consisting of 60 OD wheat germ extract (CellFree Sciences, Matsuyama, Japan), 0.04 mg/mL creatine kinase, 0.3 mM each amino acid, 12.6 mM HEPES-KOH, pH 7.8, 52.6 mM potassium acetate, 1.3 mM magnesium acetate, 0.2 mM spermidine HCl, 2.1 mM DTT, 0.6 mM ATP, 0.13 mM GTP, 8.4 mM creatine phosphate, and 0.003% sodium azide was prepared and combined with non-purified, fresh transcription at a ratio of 4 parts reaction mix to 1 part transcription. A feeding layer was prepared consisting of 0.3 mM each amino acid, 24 mM HEPES-KOH, pH 7.8, 100 mM potassium acetate, 2.5 mM magnesium acetate, 0.4 mM spermidine HCl, 4 mM DTT, 1.2 mM ATP, 0.25 mM GTP, 16 mM creatine phosphate, and 0.005% sodium azide, of which […] was added to wells of a U-bottom 96-well plate. 25 μL of the denser translation reaction mixture was carefully underlayed below the feeding layer, forming a bilayer. The plate was sealed and incubated at 22° C. for 18 h. The fully-diffused 150-μL bilayer reaction was then harvested and used for expression analysis by SDS-PAGE, and activity screening.
# The enzyme mixture was screened for activity with p-coumaroyl-CoA (FIG. 2B) and feruloyl-CoA (FIG. 2C) and all three monolignols (FIG. 2A) (p-coumaryl, coniferyl, and sinapyl alcohol). Each enzyme was tested individually alongside positive and negative controls following the procedure previously reported (Withers, S., Lu, F., Kim, H., Zhu, Y., Ralph, J. and Wilkerson, C. G. (2012) Identification of a grass-specific enzyme that acylates monolignols with p-coumarate. Journal of Biological Chemistry, 287, 8347-8355). Briefly, the assay was initiated by adding 10 μL of wheat germ cell-free translation containing one of the PMT enzymes at a concentration of 1.5-2 μM to a reaction containing 50 mM sodium phosphate buffer, pH 6, 1 mM dithiothreitol (DTT), 1 mM CoA thioester, 1 mM monolignol mixture (each monolignol at 1 mM concentration), and deionized water in a final volume of 50 μL. After a 30-min incubation, the reaction was stopped by the addition of an equal volume 100 mM hydrochloric acid. Reaction products were solubilized by adjusting the solution to 50% methanol. An identical assay with no enzyme added was performed for every reaction. Samples were filtered through 0.2 μm filters prior to analysis by liquid chromatography-mass spectrometry (LC-MS). […]
Molecule,p-coumaroyl-CoA:monolignol transferase activity (in words) [1],feruloyl-CoA monolignol transferase activity (in words) [2],feruloyl-CoA monolignol transferase activity (in words) ([2]; listed as SEQ ID NO:2),feruloyl-CoA monolignol transferase activity (in words) ([2]; listed as SEQ ID NO:4)
B1,"active PMTs, coupling monolignols to p-coumaroyl-CoA; also recorded: found to produce monolignol p-coumarate conjugates",limited to no feruloyl-CoA monolignol transferase activity; also recorded: little to no activity,no relevant activity in generating monolignol ferulates,
B2,"active PMTs, coupling monolignols to p-coumaroyl-CoA; also recorded: found to produce monolignol p-coumarate conjugates",limited to no feruloyl-CoA monolignol transferase activity; also recorded: little to no activity,,no relevant activity in generating monolignol ferulates
